This note sets out measurements from publication PMC8857470, “Molecular insights into the maturation of phosphodiesterase 6 by the specialized chaperone complex of HSP90 with AIPL1” (The Journal of Biological Chemistry, 2022).

Holding throughout (settings): both partners purified
Experiment [1] concerns the target T1, Avi-tagged HSP90β (full-length human HSP90β, residues 1–724) (human, UniProt P08238 1-724, biotin (in vivo biotinylation, N-terminally biotinylated)).
T1 construct: HSP90β, human, residues 1-724, cDNA isolated from HEK293T cells; Modified pET21a vector: N-terminal His6-tag, then the Avi tag, then a TEV cleavage site; Used apo (open state) or after incubation with AMPPNP (closed state); the two states are told apart by the assay; Host surmised to be E. coli; also called His6-Avi-tagged HSP90β; N-terminally biotinylated hHSP90B; source: cells grown in TB media …
Nature of the experiment: BLI; HSP90_(AMPPNP) (closed state): biotinylated Avi-tagged HSP90β on streptavidin sensors, AIPL1 or mutants in solution; Octet RED96, 26 °C, 25 mM Tris, 200 mM NaCl, 2.5% glycerol, 1 mM TCEP, 0.5 mg/ml BSA, pH 7.5; 1:1 kinetic fit (KD = koff/kon) and steady-state fit. On the technique in general: Biolayer interferometry detects binding as a change in optical thickness at a sensor tip.

Experiment [2] deals with T1, Avi-tagged HSP90β (full-length human …). Briefly: BLI; apo HSP90: biotinylated Avi-tagged HSP90β on streptavidin sensors, AIPL1 in solution; Octet RED96, 26 °C, 25 mM Tris, 200 mM NaCl, 2.5% glycerol, 1 mM TCEP, 0.5 mg/ml BSA, pH 7.5; 1:1 kinetic fit (KD = koff/kon) and steady-state fit.
For experiment [3], the target named is T2, full-length human HSP90β (residues 1–724), pET15b construct (human, UniProt P08238 1-724).
T2 construct: HSP90β, human, residues 1-724, cDNA isolated from HEK293T cells; Cloned into pET15b through Nco1-Nde1 sites; Host surmised to be E. coli; also called apo HSP90; HSP90_(AMPPNP); source: purified by SEC
T2 sequence (P08238 whole entry, the tested form may be a part): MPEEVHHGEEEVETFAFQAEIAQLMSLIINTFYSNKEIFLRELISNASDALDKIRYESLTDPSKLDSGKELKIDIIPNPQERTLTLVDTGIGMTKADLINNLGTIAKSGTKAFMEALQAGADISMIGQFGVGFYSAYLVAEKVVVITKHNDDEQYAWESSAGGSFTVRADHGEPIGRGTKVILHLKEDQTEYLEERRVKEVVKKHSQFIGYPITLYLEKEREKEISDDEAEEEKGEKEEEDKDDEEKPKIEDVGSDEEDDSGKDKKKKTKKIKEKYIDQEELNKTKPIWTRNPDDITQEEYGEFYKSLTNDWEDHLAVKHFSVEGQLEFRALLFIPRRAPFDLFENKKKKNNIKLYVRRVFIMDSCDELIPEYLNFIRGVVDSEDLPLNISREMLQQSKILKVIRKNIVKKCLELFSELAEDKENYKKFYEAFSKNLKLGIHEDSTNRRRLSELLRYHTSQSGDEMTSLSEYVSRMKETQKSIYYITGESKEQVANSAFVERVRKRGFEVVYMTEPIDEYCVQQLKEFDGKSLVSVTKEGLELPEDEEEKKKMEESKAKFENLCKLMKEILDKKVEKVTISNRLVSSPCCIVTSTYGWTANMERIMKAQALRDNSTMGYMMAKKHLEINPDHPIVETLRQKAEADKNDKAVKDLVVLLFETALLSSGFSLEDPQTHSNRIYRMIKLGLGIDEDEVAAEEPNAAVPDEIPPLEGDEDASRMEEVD
Nature of the experiment: cross-linking + other: mass photometry; DSS (0.5 mM) or glutaraldehyde (0.03%) added to HSP90β (15 μM), AIPL1 (25 μM) or their mixture (HSP90_(AMPPNP)/AIPL1), 15 to 30 min at 25 °C, 25 mM Hepes pH 7.5, 200 mM NaCl, 5% glycerol, 1 mM TCEP; products on 3 to 8% Tris-acetate gel and by mass photometry.

“And” between values parts separate entries of the source, which are not always exact repeats. Equal entries are not always repeated.

T1 sequence (P08238 whole entry, the tested form may be a part): as above

B1: AIPL1-Δα3 (Δ111–132) (natural protein, mouse)
chain: MDVSLLLNVEGVKKTILHGGTGELPSFITGSRVTFHFRTMKCDDERTVIDDSKQVGQPMSIIIGNMFKLEVWETLLTSMRLGEVAEFWCDTIHTGVYPMLSRSLRQVAEGGGGGGGYEDLDELQKEPQPLVFLIELLQVEAPNEYQRETWNLNNEERMQAVPLLHGEGNRLYKLGRYDQAATKYQEAIVCLRNLQTKEKPWEVEWLKLEKMINTLILNYCQCLLKKEEYYEVLEHTSDILRHHPGIVKAYYMRARAHAEVWNAEEAKADLEKVLELEPSMRKAVLRELRLLESRLADKQEEERQRCRSMLG
notes: AIPL1, mouse, residues before the replaced stretch 111-132; five glycine residues that replace residues 111 to 132 of AIPL1 (told in words); AIPL1, mouse, residues after the replaced stretch 111-132, to the end of the full-length protein (aa 328); also called AIPL1-Δα3 (loop deletion); α3-helix deletion; source: E. coli BL21-(DE3), purified (Ni-NTA, Mono Q5, SEC)
On to B1, for which, in experiment [1], the binding result was “binds”.

B2: full-length mouse AIPL1 (aa 1–328) (natural protein, UniProt Q924K1 1-328, looked up)
chain: MDVSLLLNVEGVKKTILHGGTGELPSFITGSRVTFHFRTMKCDDERTVIDDSKQVGQPMSIIIGNMFKLEVWETLLTSMRLGEVAEFWCDTIHTGVYPMLSRSLRQVAEGKDPTSWHVHTCGLANMFAYHTLGYEDLDELQKEPQPLVFLIELLQVEAPNEYQRETWNLNNEERMQAVPLLHGEGNRLYKLGRYDQAATKYQEAIVCLRNLQTKEKPWEVEWLKLEKMINTLILNYCQCLLKKEEYYEVLEHTSDILRHHPGIVKAYYMRARAHAEVWNAEEAKADLEKVLELEPSMRKAVLRELRLLESRLADKQEEERQRCRSMLG
notes: also called wt AIPL1; source: E. coli BL21-(DE3), purified (Ni-NTA, Mono Q5, SEC)
Take B2: in experiment [1], the dissociation constant Kd was 4.8 µM, the koff came out at 0.32 s⁻¹ and the kon amounted to 150000 M⁻¹ s⁻¹. For the same molecule, in experiment [2], the Kd was ~17 µM and 32 µM and 33 µM; the koff is 1.2 s⁻¹; the association rate constant (kon) amounted to 71000 M⁻¹ s⁻¹. Further, the “stoichiometry N” value in experiment [3] was 0.5 AIPL1 per HSP90 chain (1:2).

B3: AIPL1_(1–316) (domain or fragment, mouse, UniProt Q924K1 1-316, looked up)
chain: MDVSLLLNVEGVKKTILHGGTGELPSFITGSRVTFHFRTMKCDDERTVIDDSKQVGQPMSIIIGNMFKLEVWETLLTSMRLGEVAEFWCDTIHTGVYPMLSRSLRQVAEGKDPTSWHVHTCGLANMFAYHTLGYEDLDELQKEPQPLVFLIELLQVEAPNEYQRETWNLNNEERMQAVPLLHGEGNRLYKLGRYDQAATKYQEAIVCLRNLQTKEKPWEVEWLKLEKMINTLILNYCQCLLKKEEYYEVLEHTSDILRHHPGIVKAYYMRARAHAEVWNAEEAKADLEKVLELEPSMRKAVLRELRLLESRLADKQ
notes: source: E. coli BL21-(DE3), purified (Ni-NTA, Mono Q5, SEC)
Take B3: in experiment [1], the Kd is 27 µM.

Usually Kd stands for a measure of binding affinity in units of concentration. Read a low Kd as a tighter complex. A word on the koff: it is the rate constant with which the complex falls apart. Low readings indicate slow dissociation, high ones fast dissociation. By kon is commonly meant a measure of how fast the partners come together. As usually defined, the stoichiometry N is a count of units in the complex or per binding partner.
